Values joined by “and” are separate entries in the source; they are usually repeats but may differ in a detail not shown here. Equal values may be shown once.
Assay: patients with anti-drug antibodies; higher = more immunogenic

Protein | patients with anti-drug antibodies
unnamed (protein) chain 1: QVQLQQSDAELVKPGASVKISCKASGYTFTDHAIHWAKQKPEQGLEWIGYISPGNDDIKYNEKFKGKATLTADKSSSTAYMQLNSLTSEDSAVYFCKRSYYGHWGQGTTLTVSS chain 2: DIQMTQSPASLSVSVGETVTITCRASENIYSNLAWYQQKQGKSPQLLVYAATNLADGVPSRFSGSGSGTQYSLKINSLQSEDFGSYYCQHFWGTPYTFGGGTRLEIK | 55%
unnamed (protein) chain 1: EVQLVESGGGLVKPGGSLRLSCAASGFTFSNYAMSWVRQAPGKGLEWVATISSGGSHTYYLDSVKGRFTISRDNSKNTLYLQMNSLRAEDTALYYCARLFTGYAMDYWGQGTLVTVSS chain 2: QIVLTQSPATLSLSPGERATMSCTASSSVSSSYLHWYQQKPGKAPKLWIYSTSNLASGVPSRFSGSGSGTDYTLTISSLQPEDFATYYCHQYYRLPPITFGQGTKLEIK | 8%
unnamed (protein) chain 1: EVQLVESGGGLVQPGGSLRLSCAASGFTFSPFAMSWVRQAPGKGLEWVAKISPGGSWTYYSDTVTGRFTISRDNAKNSLYLQMNSLRAEDTAVYYCARQLWGYYALDIWGQGTTVTVSS chain 2: EIVLTQSPATLSLSPGERATLSCSASISVSYMYWYQQKPGQAPRLLIYDMSNLASGIPARFSGSGSGTDFTLTISSLEPEDFAVYYCMQWSGYPYTFGGGTKVEIK | 2.9%
unnamed (protein) chain 1: EVQLQQSGPELEKPGASVKLSCKASGYSFTGYNMNWVKQSHGKSLEWIGHIDPYYGDTSYNQKFRGKATLTVDKSSSTAYMQLKSLTSEDSAVYYCVKGGYYGHWYFDVWGAGTTVTVSS chain 2: DIQMTQSPSSLSASLGERVSLTCRASQDIGSSLNWLQQGPDGTIKRLIYATSSLDSGVPKRFSGSRSGSDYSLTISSLESEDFVDYYCLQYVSSPPTFGAGTKLELK | 58%
unnamed (protein) chain 1: EVQLVESGGKLLKPGGSLKLSCAASGFTFSSFAMSWFRQSPEKRLEWVAEISSGGSYTYYPDTVTGRFTISRDNAKNTLYLEMSSLRSEDTAMYYCARGLWGYYALDYWGQGTSVTVSS chain 2: QIVLIQSPAIMSASPGEKVTMTCSASSSVSYMYWYQQKPGSSPRLLIYDTSNLASGVPVRFSGSGSGTSYSLTISRMEAEDAATYYCQQWSGYPYTFGGGTKLEIK | 0.2%
unnamed (protein) chain 1: QVQLVESGGGVVQPGRSLRLSCAASGFTFSSYGMHWVRQAPGKGLEWVAVIWYDGSNKYYADSVKGRFTISRDNSKNTLYLQMNSLRAEDTAVYYCARDPRGATLYYYYYGMDVWGQGTTVTVSS chain 2: DIQMTQSPSSLSASVGDRVTITCRASQSINSYLDWYQQKPGKAPKLLIYAASSLQSGVPSRFSGSGSGTDFTLTISSLQPEDFATYYCQQYYSTPFTFGPGTKVEIK | 2% and 0%
unnamed (protein) chain 1: EVQLVQSGAEVKKPGESLKISCKGSGYSFTDYYMKWARQMPGKGLEWMGDIIPSNGATFYNQKFKGQVTISADKSISTTYLQWSSLKASDTAMYYCARSHLLRASWFAYWGQGTMVTVSS chain 2: DIVMTQSPDSLAVSLGERATINCESSQSLLNSGNQKNYLTWYQQKPGQPPKPLIYWASTRESGVPDRFSGSGSGTDFTLTISSLQAEDVAVYYCQNDYSYPYTFGQGTKLEIK | 17.5%
unnamed (protein) chain 1: QVQLQQSGAELVKPGASVKLSCKASGYTFRSYDINWVRQRPEQGLEWIGWIFPGDGSTKYNEKFKGKATLTTDKSSSTAYMQLSRLTSEDSAVYFCARWTVVGPGYFDVWGAGTTVTVSS chain 2: QIVLTQSPAIMSASPGEKVTITCSASSSVSYMNWFQQKPGTSPKLWIYSTSNLASGVPARFSGSGSGTSYSLTISRMEAEDAATYYCQQRSSYPNTFGGGTKLEIK | 28%
unnamed (protein) chain 1: EVQLVESGGGLVQPGGSLRLSCAASGFTFSSSGMSWVRQAPGKGLEWVSVIASSGSNTYYADSVKGRFTISRDNSKNTLYLQMNSLRAEDTAVYYCARSIFYTTWGQGTLVTVSS chain 2: not shown | 26%
unnamed (protein) chain 1: QVQLVESGGGLVQPGGSLRLSCAASGFTFRSHWLSWVRQAPGKGLEWVSNINYDGSSTYYADSVKGRFTISRDNSKNTLYLQMNSLRAEDTAVYYCARDTYLHFDYWGQGTLVTVSS chain 2: DIALTQPASVSGSPGQSITISCTGTSSDVGDINDVSWYQQHPGKAPKLMIYDVNNRPSGVSNRFSGSKSGNTASLTISGLQAEDEADYYCQSYAGSYLSEVFGGGTKLTVL | 0%
unnamed (protein) chain 1: EVQLVESGGGLVQPGGSLRLSCAASGFTFSRYSMSWVRQAPGKGLELVAQINSVGNSTYYPDTVKGRFTISRDNAKNTLYLQMNSLRAEDTAVYYCASGDYWGQGTLVTVSS chain 2: DVVMTQSPLSLPVTLGQPASISCRSSQSLIYSDGNAYLHWFLQKPGQSPRLLIYKVSNRFSGVPDRFSGSGSGTDFTLKISRVEAEDVGVYYCSQSTHVPWTFGQGTKVEIK | 3.5%
unnamed (protein) chain 1: QVQLVQSGAEVKKPGASVKVSCKASGYIFITYWMTWVRQAPGQGLEWMGQIFPASGSADYNEKFEGRVTMTTDTSTSTAYMELRSLRSDDTAVYYCARGGGGFAYWGQGTLVTVSS chain 2: DIQMTQSPSSLSASVGDRVTITCRTSENIYSYLAWYQQKPGKAPKLLIYNAKTLAEGVPSRFSGSGSGTDFTLTISSLQPEDFATYYCQHHYGIPFTFGQGTKVEIK | 6.5%
unnamed (protein) chain 1: EVQLVESGGGLVQPGRSLRLSCAASRFTFDDYAMHWVRQAPGKGLEWVSGISWNSGRIGYADSVKGRFTISRDNAENSLFLQMNGLRAEDTALYYCAKGRDSFDIWGQGTMVTVSS chain 2: DIQMTQSPSSVSASVGDRVTITCRASQGISSWLAWYQQKPGKAPKLLIYGASSLESGVPSRFSGSGSGTDFTLTISSLQPEDFASYYCQQANSFPYTFGQGTKLEIK | 3.8%
unnamed (protein) chain 1: EVQLVESGGGLVQPGGSLRLSCAASGFTFSSHDMHWVRQATGKGLEWVSGIGTAGDTYYPDSVKGRFTISRENAKNSLYLQMNSLRAGDTAVYYCARDRYSPTGHYYGMDVWGQGTTVTVSS chain 2: DIQMTQSPSTLSASVGDRVTITCRASQSISSWLAWYQQKPGKAPKLLIYKASSLESGVPSRFSGSGSGTEFTLTISSLQPDDFATYYCKQYADYWTFGQGTKVEIK | 3%
unnamed (protein) chain 1: QMQLVESGGGVVQPGRSLRLSCAASGFTFRTYGMHWVRQAPGKGLEWVAVIWYDGSNKHYADSVKGRFTITRDNSKNTLNLQMNSLRAEDTAVYYCARAPQWELVHEAFDIWGQGTMVTVSS chain 2: SYVLTQPPSVSVAPGQTARITCGGNNLGSKSVHWYQQKPGQAPVLVVYDDSDRPSWIPERFSGSNSGNTATLTISRGEAGDEADYYCQVWDSSSDHVVFGGGTKLTVL | 2.1%
unnamed (protein) chain 1: QVQLVQSGAEVKKPGSSVKVSCKASGYTFTDYEMHWVRQAPGQGLEWIGAVAPETGGTAYNQKFKGRATITADKSTSTAYMELSSLRSEDTAVYYCTSTVVPFAYWGQGTLVTVSS chain 2: QIQLTQSPSSLSASVGDRVTITCSASSSVSYMYWYQQKPGKAPKAWIYRTSNLASGVPSRFSGSGSGTDYTLTISSLQPEDFATYYCQQYQSLPLTFGGGTKVEIK | 0%
unnamed (protein) chain 1: EVQLVESGGDLVQPGRSLRLSCVASGFTFDDYAMHWVRQAPGKGLEWVSGVSWSGSTVGYADSVKGRFTVSRDNAQKSLYLQMNSLRAEDTALYYCVKDAYKFNYYYYGLDVWGQGTTVTVSS chain 2: EIVMTQSPATLSVSPGERATLSCRASQTILSNLAWYLQKPGQAPRLLIYGASTRATGLPARFSGSGSGTEFTLTISSLQSEDFAVYYCQQYNNWPLTFGGGTKVEIK | 5%
unnamed (protein) chain 1: QVQLVQSGAEVKKPGASVKVSCKASGYTFTNYGMNWVRQAPGQGLEWMGWINTYTGEPTYADDFKGRVTMTTDTSTSTAYMELRSLRSDDTAVYYCARIGDSSPSDYWGQGTLVTVSS chain 2: EIVMTQSPATLSVSPGERATLSCKASQSVSNDVVWYQQKPGQAPRLLIYYASNRYTGIPARFSGSGSGTEFTLTISSLQSEDFAVYYCQQDYTSPWTFGQGTKLEIK | 0%
unnamed (protein) chain 1: QVQLQQWGAGLLKPSETLSLTCAVYGGSFSGYYWSWIRQPPGKGLEWIGEINHSGSTNYNPSLKSRVTISVDTSKNQFSLKLSSVTAADTAVYYCARGYYDILTGYYYYFDYWGQGTLVTVSS chain 2: EIVLTQSPATLSLSPGERATLSCRASQSVSRYLAWYQQKPGQAPRLLIYDASNRATGIPARFSGSGSGTDSTLTISSLEPEDFAVYYCQQRSNWPRTFGQGTKVEIK | 4.4%
unnamed (protein) chain 1: EVQLVESGGGLVQPGGSLRLSCAASGFTFSSYVMSWVRQAPGKGLEWVATISSGGSYTYYPDSVKGRFTISRDNAKNTLYLQMNSLRAEDTAVYYCARRGDSMITTDYWGQGTLVTVSS chain 2: DIQMTQSPSSLSASVGDRVTITCKASQDVGTAVAWYQQKPGKAPKLLIYWASTRHTGVPSRFSGSGSGTDFTLTISSLQPEDFATYYCQQYSSYRTFGQGTKVEIK | 0%

Reference: the FLAb antibody collection
